# B1: Human topoisomerase II alpha labelled with Alexa Fluor 555 (TOP2α-AF555) (enzyme, UniProt P11388 1-1531, looked up)
# chain: MEVSPLQPVNENMQVNKIKKNEDAKKRLSVERIYQKKTQLEHILLRPDTYIGSVELVTQQMWVYDEDVGINYREVTFVPGLYKIFDEILVNAADNKQRDPKMSCIRVTIDPENNLISIWNNGKGIPVVEHKVEKMYVPALIFGQLLTSSNYDDDEKKVTGGRNGYGAKLCNIFSTKFTVETASREYKKMFKQTWMDNMGRAGEMELKPFNGEDYTCITFQPDLSKFKMQSLDKDIVALMVRRAYDIAGSTKDVKVFLNGNKLPVKGFRSYVDMYLKDKLDETGNSLKVIHEQVNHRWEVCLTMSEKGFQQISFVNSIATSKGGRHVDYVADQIVTKLVDVVKKKNKGGVAVKAHQVKNHMWIFVNALIENPTFDSQTKENMTLQPKSFGSTCQLSEKFIKAAIGCGIVESILNWVKFKAQVQLNKKCSAVKHNRIKGIPKLDDANDAGGRNSTECTLILTEGDSAKTLAVSGLGVVGRDKYGVFPLRGKILNVREASHKQIMENAEINNIIKIVGLQYKKNYEDEDSLKTLRYGKIMIMTDQDQDGSHIKGLLINFIHHNWPSLLRHRFLEEFITPIVKVSKNKQEMAFYSLPEFEEWKSSTPNHKKWKVKYYKGLGTSTSKEAKEYFADMKRHRIQFKYSGPEDDAAISLAFSKKQIDDRKEWLTNFMEDRRQRKLLGLPEDYLYGQTTTYLTYNDFINKELILFSNSDNERSIPSMVDGLKPGQRKVLFTCFKRNDKREVKVAQLAGSVAEMSSYHHGEMSLMMTIINLAQNFVGSNNLNLLQPIGQFGTRLHGGKDSASPRYIFTMLSSLARLLFPPKDDHTLKFLYDDNQRVEPEWYIPIIPMVLINGAEGIGTGWSCKIPNFDVREIVNNIRRLMDGEEPLPMLPSYKNFKGTIEELAPNQYVISGEVAILNSTTIEISELPVRTWTQTYKEQVLEPMLNGTEKTPPLITDYREYHTDTTVKFVVKMTEEKLAEAERVGLHKVFKLQTSLTCNSMVLFDHVGCLKKYDTVLDILRDFFELRLKYYGLRKEWLLGMLGAESAKLNNQARFILEKIDGKIIIENKPKKELIKVLIQRGYDSDPVKAWKEAQQKVPDEEENEESDNEKETEKSDSVTDSGPTFNYLLDMPLWYLTKEKKDELCRLRNEKEQELDTLKRKSPSDLWKEDLATFIEELEAVEAKEKQDEQVGLPGKGGKAKGKKTQMAEVLPSPRGQRVIPRITIEMKAEAEKKNKKKIKNENTEGSPQEDGVELEGLKQRLEKKQKREPGTKTKKQTTLAFKPIKKGKKRNPWSDSESDRSSDESNFDVPPRETEPRRAATKTKFTMDLDSDEDFSDFDEKTDDEDFVPSDASPPKTKTSPKLSNKELKPQKSVVSDLEADDVKGSVPLSSSPPATHFPDETEITNPVPKKNVTVKKTAAKSQSSTSTTGAKKRAAPKGTKRDPALNSGVSQKPDPAKTKNRRKRKPSTSDDSDSNFEKIVSKAVTSKKSKGESDDFHMDFDSAVAPRAKSVRAKKPIKYLEESDEDDLF
# modifications: Alexa555 conjugated CoA attached by SFP transferase to the ybbr tag (labelling efficiency ~30% or ~70%)
# notes: Human topoisomerase II alpha (TOP2α), encoded from the pLIB vector with a C-terminal 3C-ybbr-tev-strepII tag; Two preparations: ~30% labelled (Strep-II tag apparently cleaved); The dimer rows rest on the ~30% preparation; also called TOP2α-Alexa555; TopIIa; source: baculovirus, SF9 or HighFive cells, purified (StrepTrap, HiTrap Heparin, size exclusion); not shown: ybbr, C-terminal, kept; StrepII, …
# Target: the molecule itself
# Assay: single-molecule fluorescence intensity (confocal scans, optical tweezers); 2 nM TOP2α-AF555 bound at the junction of a DNA braid, 1 mM ATPγS (also four-braid substrates with ATP); 2D Gaussian fit of spot intensity, histogram of photon counts; 50 mM Tris pH 7.5, 125 mM potassium glutamate, 2.5 mM MgCl2, 0.5 mg/mL BSA
protein,measurement,value
B1,stoichiometry N,2
